Measurements as given in paper PMC3818223, “A RhoC Biosensor Reveals Differences in the Activation Kinetics of RhoA and RhoC in Migrating Cells” (PLoS ONE, 2013).

Key:
[1] = target: T1, RhoC G14V, full length, as the C-terminal module of the RhoC FLARE.sc biosensor (UniProt P08134 1-193, G14V); assay: FRET or BRET; intramolecular FRET of the single-chain biosensor (binding domain-mCerulean-linker-mVenus-RhoC); fluorometry of cold, live HEK293T cell suspensions in PBS 48 h after transfection, excitation 433 nm, emission 450-600 nm, FRET/CFP ratio; details: partners not purified
T1 construct: RhoC GTPase, full length, with G14V; On one chain with m1, as m2; also called constitutively active mutant; source: HEK293T, transfected (Lipofectamine2000), in live cell suspension; not shown: monomeric Venus, N-terminal, kept

[2] = target: T2, RhoC Q63L, full length, as the C-terminal module of the RhoC FLARE.sc biosensor (UniProt P08134 1-193, Q63L); assay: as above; details: partners not purified
T2 construct: RhoC GTPase, full length, with Q63L; On one chain with m1, as m2; also called constitutively active mutant; source: HEK293T, transfected (Lipofectamine2000), in live cell suspension; not shown: monomeric Venus, N-terminal, kept
T2 sequence (P08134 whole entry Q63L): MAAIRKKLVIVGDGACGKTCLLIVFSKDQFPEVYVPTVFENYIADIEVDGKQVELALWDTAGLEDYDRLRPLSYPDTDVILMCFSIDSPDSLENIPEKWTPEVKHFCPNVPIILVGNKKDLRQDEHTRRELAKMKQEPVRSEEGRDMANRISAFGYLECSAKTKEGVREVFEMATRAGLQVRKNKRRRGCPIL

T1 sequence (P08134 whole entry G14V, the tested form may be a part): as the sequence (P08134 whole entry Q63L) above, with G14V, L63Q counted along it

B1: ROCK1 Rho binding domain (RBD, amino acids 905-1046), as the N-terminal module of the RhoC FLARE.sc biosensor (domain or fragment, UniProt Q13464 905-1046, looked up)
chain: ARGLLEEQYFELTQESKKAASRNRQEITDKDHTVSRLEEANSMLTKDIEILRRENEELTEKMKKAEEEYKLEKEEEISNLKAAFEKNINTERTLKTQAVNKLAEIMNRKDFKIDRKKANTQDLRKKEKENRKLQLELNQERE
notes: It is split from RhoC here so that the intramolecular pair can be written; Subcloned into pTriEX-HisMyc4 (Novagen), which may add His and Myc tags; source: HEK293T, transfected (Lipofectamine2000), in live cell suspension; not shown: monomeric Cerulean, C-terminal, kept
B1 was tested, and the “increase in FRET ratio against the T19N biosensor” value [1] was 41% and the “increase in FRET ratio against the T19N biosensor” value [2] was 41%.
